T1: OMNI-50 (Ezakiella peruensis strain M6.X2)
T1 sequence: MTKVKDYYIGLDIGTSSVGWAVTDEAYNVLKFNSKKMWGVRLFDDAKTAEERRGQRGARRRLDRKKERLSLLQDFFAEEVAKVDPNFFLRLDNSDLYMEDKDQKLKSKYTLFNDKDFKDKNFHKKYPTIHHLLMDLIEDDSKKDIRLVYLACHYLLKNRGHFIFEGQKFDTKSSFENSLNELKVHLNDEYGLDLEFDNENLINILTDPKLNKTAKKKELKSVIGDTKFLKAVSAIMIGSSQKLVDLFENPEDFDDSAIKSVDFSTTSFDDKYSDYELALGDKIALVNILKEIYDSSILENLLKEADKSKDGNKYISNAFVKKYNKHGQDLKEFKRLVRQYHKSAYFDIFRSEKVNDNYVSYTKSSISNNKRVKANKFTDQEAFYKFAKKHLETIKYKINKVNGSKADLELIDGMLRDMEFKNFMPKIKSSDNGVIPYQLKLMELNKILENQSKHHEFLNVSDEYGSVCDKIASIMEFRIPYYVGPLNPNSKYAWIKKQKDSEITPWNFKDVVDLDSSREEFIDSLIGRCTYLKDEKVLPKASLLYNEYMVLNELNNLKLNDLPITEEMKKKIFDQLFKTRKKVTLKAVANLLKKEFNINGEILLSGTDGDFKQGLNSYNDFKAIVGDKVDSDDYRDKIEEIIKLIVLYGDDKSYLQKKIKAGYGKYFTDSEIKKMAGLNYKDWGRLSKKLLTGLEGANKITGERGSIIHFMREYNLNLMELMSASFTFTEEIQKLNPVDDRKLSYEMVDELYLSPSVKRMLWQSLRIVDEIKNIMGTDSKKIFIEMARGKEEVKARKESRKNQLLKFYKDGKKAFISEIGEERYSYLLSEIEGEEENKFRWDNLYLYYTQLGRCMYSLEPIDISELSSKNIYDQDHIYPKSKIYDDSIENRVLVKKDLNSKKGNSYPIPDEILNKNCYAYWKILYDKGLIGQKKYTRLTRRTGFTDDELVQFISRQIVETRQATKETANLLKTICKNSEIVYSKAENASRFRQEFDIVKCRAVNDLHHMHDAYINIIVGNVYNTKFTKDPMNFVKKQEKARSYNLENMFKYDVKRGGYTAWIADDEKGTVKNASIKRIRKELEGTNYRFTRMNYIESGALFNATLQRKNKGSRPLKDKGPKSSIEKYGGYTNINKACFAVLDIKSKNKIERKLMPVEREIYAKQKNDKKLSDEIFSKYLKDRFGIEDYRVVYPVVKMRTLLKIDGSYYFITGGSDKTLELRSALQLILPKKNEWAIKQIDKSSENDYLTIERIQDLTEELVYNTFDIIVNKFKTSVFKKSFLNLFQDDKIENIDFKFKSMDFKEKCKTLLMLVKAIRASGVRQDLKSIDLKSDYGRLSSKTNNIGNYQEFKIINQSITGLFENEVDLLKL

T2: OMNI-50 (Ezakiella peruensis strain M6.X2)
T2 chain: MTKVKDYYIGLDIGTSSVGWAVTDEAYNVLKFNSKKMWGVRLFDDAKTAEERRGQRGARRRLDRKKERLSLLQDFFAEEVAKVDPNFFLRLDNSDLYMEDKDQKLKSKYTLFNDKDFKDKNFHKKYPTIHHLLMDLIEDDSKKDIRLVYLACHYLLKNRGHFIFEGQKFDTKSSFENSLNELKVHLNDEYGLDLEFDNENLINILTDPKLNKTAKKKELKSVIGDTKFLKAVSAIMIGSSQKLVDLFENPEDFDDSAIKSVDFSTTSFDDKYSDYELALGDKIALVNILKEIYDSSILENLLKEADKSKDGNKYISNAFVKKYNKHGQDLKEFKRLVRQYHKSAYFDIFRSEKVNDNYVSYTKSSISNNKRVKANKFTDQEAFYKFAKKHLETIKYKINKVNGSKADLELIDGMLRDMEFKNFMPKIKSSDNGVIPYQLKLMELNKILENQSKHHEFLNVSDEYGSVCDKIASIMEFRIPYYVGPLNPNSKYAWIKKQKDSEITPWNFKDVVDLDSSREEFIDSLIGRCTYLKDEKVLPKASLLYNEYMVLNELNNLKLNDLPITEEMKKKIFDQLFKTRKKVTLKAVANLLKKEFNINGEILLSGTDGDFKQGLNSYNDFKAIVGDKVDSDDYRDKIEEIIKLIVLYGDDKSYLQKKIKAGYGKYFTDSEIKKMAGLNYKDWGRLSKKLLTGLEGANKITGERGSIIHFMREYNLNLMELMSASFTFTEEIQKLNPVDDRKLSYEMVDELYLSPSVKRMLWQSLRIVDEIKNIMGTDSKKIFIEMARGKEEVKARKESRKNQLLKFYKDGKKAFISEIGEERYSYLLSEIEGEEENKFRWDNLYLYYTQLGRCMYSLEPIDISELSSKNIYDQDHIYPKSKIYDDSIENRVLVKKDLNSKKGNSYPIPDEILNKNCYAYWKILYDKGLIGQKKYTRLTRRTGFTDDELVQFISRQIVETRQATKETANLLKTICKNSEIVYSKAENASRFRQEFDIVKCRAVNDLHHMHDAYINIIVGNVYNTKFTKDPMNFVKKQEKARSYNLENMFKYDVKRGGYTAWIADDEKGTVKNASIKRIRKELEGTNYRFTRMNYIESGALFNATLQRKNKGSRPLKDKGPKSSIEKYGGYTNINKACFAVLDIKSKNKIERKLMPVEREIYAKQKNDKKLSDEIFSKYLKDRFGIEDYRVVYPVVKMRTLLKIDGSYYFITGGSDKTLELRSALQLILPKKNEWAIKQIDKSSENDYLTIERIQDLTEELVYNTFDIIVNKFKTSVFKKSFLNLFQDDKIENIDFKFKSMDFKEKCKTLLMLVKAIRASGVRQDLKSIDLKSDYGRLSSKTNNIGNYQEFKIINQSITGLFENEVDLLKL


Columns and labels:
[1] = system: T1, OMNI-50 (Ezakiella peruensis strain M6.X2); assay: cleavage_in_vitro; conditions: TXTL PAM depletion, PAM NGG; some activity with NAG and NGA; sgRNA V1 and V2
OMNI-50 = target: T2, OMNI-50; assay: cell_activity; PAM NGG; RNP in U2OS; conditions: tags: SV40 NLS N-terminal, HA-SV40 NLS-8xHis C-terminal (pET9a)
Procedure: FIG. 5A-FIG. 5D: OMNI-50 activity Assay as RNP. OMNI-50 nuclease was over-expressed and purified. The purified protein was complexed with synthetic sgRNA to form RNPs. For the in-vitro assays (FIG. 5A and FIG. 5B) RNPs were incubated with a linear DNA template containing the corresponding target and PAM sequences (listed in Table 5). Activity was verified by cleavage of the linear template. For the in-vivo assays (FIG. 5C and FIG. 5D), U2OS cells were electroporated with RNPs and activity was determined by measurement of indel frequency by NGS. FIG. 5A: Activity assay of OMNI-50 RNP with different spacer lengths (17-23 bps) of guide 35 (Table 10). FIG. 5B: Decreasing amounts of RNPs (4 pmol, 2 pmol, 1.2 pmol, 0.6 pmol and 0.2 pmol) with spacer lengths 20-23 nts were incubated with 100 ng DNA target template. FIG. 5C: Activity assay for OMNI-50 as RNP in U2OS cells: RNPs with spacer lengths 17-23 bps were electroporated into U2OS cell line and editing levels (indels) measured by NGS. FIG. 5D: Activity assay for OMNI-50 as RNP in U2OS cells: RNPs with ELANE g35 sgRNA V1-V4 were electroporated into U2OS cell line and editing levels (indels) measured by NGS.
Spacer length optimization was also performed in a mammalian cell context. RNPs were assembled by mixing 100 uM nuclease with 120 uM of synthetic guide with different spacer lengths (17-23 nt, Table 5) and 100 uM Cas9 electroporation enhancer (IDT). After 10 minutes of incubation at room temperature, the RNP complexes were mixed with 200,000 pre-washed U2OS, iPSC, or HSC cells and electroporated using Lonza SE or P3 Cell Line 4D-Nucleofector™ X Kit with the DN100 or CA137 program, respectively, according to the manufacture's protocol. At 72 h cells were lysed and their genomic DNA was used in a PCR reaction to amplify the corresponding putative genomic targets. Amplicons were subjected to NGS and the resulting sequences were then used to calculate the percentage of editing events.

Molecule | activity (1-depletion score) [1] | activity (OMNI-50)
GGAAGAGCAGAGCCUUGGUCUCGUUUGAGAGUUAUGUAAGAAAUUACAUGACGAGUUCAAAUAAAAAUUUAUUCAAACCGCCUAUUUAUAGGCCGCAGAUGUUCUGCAUUAUGCUUGCUAUUGCAAGCUUUUUU / GGAAGAGCAGAGCCTTGGTCTCNNNNNNNN / NNNNNNNNGAGACCAAGGCTCTGCTCTTCC [T2 sgRNA V2 ; T2 protospacer 8N PAM library] | 0.98 | 
ELANE g35 sgRNA V2 22 nt spacer ; ELANE g35 on-target (ssRNA ; dsDNA, three 2'-OMe 3'-PS at 5' and 3' ends) RNA: GCAGUCCGGGCUGGGAGCGGGUGUUUGAGAGUUAUGUAAGAAAUUACAUGACGAGUUCAAAUAAAAAUUUAUUCAAACCGCCUAUUUAUAGGCCGCAGAUGUUCUGCAUUAUGCUUGCUAUUGCAAGCUUUUUU DNA 1: CTGTTGCTGCAGTCCGGGCTGGGAGCGGGTGGGGAGCAGAGGG DNA 2: CCCTCTGCTCCCCACCCGCTCCCAGCCCGGACTGCAGCAACAG |  | 90.9 % indels
ELANE g35 sgRNA V2 17 nt spacer ; ELANE g35 on-target (ssRNA ; dsDNA, three 2'-OMe 3'-PS at 5' and 3' ends) RNA: CCGGGCUGGGAGCGGGUGUUUGAGAGUUAUGUAAGAAAUUACAUGACGAGUUCAAAUAAAAAUUUAUUCAAACCGCCUAUUUAUAGGCCGCAGAUGUUCUGCAUUAUGCUUGCUAUUGCAAGCUUUUUU DNA 1: CTGTTGCTGCAGTCCGGGCTGGGAGCGGGTGGGGAGCAGAGGG DNA 2: CCCTCTGCTCCCCACCCGCTCCCAGCCCGGACTGCAGCAACAG |  | 0.54 % indels
ELANE g35 sgRNA V2 20 nt spacer ; ELANE g35 on-target (ssRNA ; dsDNA, three 2'-OMe 3'-PS at 5' and 3' ends) RNA: AGUCCGGGCUGGGAGCGGGUGUUUGAGAGUUAUGUAAGAAAUUACAUGACGAGUUCAAAUAAAAAUUUAUUCAAACCGCCUAUUUAUAGGCCGCAGAUGUUCUGCAUUAUGCUUGCUAUUGCAAGCUUUUUU DNA 1: CTGTTGCTGCAGTCCGGGCTGGGAGCGGGTGGGGAGCAGAGGG DNA 2: CCCTCTGCTCCCCACCCGCTCCCAGCCCGGACTGCAGCAACAG |  | 43.8 % indels
